Consider 92 variants from IntAct's records for PubMed 29039417.

The chains are these.
B1: Protein PTHB1 (Homo sapiens), Q3SYG4 (parent)
chain: MSLFKARDWWSTILGDKEEFDQGCLCLANVDNSGNGQDKIIVGSFMGYLRIFSPHPAKTGDGAQAEDLLLEVDLRDPVLQVEVGKFVSGTEMLHLAVLHSRKLCVYSVSGTLGNVEHGNQCQMKLMYEHNLQRTACNMTYGSFGGVKGRDLICIQSMDGMLMVFEQESYAFGRFLPGFLLPGPLAYSSRTDSFLTVSSCQQVESYKYQVLAFATDADKRQETEQQKLGSGKRLVVDWTLNIGEQALDICIVSFNQSASSVFVLGERNFFCLKDNGQIRFMKKLDWSPSCFLPYCSVSEGTINTLIGNHNNMLHIYQDVTLKWATQLPHIPVAVRVGCLHDLKGVIVTLSDDGHLQCSYLGTDPSLFQAPNVQSRELNYDELDVEMKELQKIIKDVNKSQGVWPMTEREDDLNVSVVVSPNFDSVSQATDVEVGTDLVPSVTVKVTLQNRVILQKAKLSVYVQPPLELTCDQFTFEFMTPDLTRTVSFSVYLKRSYTPSELEGNAVVSYSRPTDRNPDGIPRVIQCKFRLPLKLICLPGQPSKTASHKITIDTNKSPVSLLSLFPGFASQSDDDQVNVMGFHFLGGARITVLASKTSQRYRIQSEQFEDLWLITNELILRLQEYFEKQGVKDFACSFSGSIPLQEYFELIDHHFELRINGEKLEELLSERAVQFRAIQRRLLARFKDKTPAPLQHLDTLLDGTYKQVIALADAVEENQGNLFQSFTRLKSATHLVILLIALWQKLSADQVAILEAAFLPLQEDTQELGWEETVDAAISHLLKTCLSKSSKEQALNLNSQLNIPKDTSQLKKHITLLCDRLSKGGRLCLSTDAAAPQTMVMPGGCTTIPESDLEERSVEQDSTELFTNHRHLTAETPRPEVSPLQGVSE
partner: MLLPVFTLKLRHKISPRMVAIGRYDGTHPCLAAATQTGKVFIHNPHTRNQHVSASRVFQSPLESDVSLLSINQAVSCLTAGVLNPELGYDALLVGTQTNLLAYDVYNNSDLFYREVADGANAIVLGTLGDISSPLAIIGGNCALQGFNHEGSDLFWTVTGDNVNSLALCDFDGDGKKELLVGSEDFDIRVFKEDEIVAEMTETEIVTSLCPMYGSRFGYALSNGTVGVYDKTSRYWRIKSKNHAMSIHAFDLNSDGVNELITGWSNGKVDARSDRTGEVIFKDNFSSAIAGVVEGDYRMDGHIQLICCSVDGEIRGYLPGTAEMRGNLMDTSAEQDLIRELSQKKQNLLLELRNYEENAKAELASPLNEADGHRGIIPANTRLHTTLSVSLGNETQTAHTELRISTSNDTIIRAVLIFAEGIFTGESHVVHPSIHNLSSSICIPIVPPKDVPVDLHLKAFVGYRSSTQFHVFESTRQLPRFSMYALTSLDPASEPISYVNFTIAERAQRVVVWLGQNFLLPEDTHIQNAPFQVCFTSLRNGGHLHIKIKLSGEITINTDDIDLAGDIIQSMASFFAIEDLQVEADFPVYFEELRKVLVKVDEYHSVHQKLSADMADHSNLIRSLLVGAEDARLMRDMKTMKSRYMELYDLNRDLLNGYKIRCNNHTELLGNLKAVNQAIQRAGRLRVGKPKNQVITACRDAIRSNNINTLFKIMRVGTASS
B2: Protein PTHB1 (Homo sapiens), Q3SYG4 (parent)
chain: B1 chain
partner: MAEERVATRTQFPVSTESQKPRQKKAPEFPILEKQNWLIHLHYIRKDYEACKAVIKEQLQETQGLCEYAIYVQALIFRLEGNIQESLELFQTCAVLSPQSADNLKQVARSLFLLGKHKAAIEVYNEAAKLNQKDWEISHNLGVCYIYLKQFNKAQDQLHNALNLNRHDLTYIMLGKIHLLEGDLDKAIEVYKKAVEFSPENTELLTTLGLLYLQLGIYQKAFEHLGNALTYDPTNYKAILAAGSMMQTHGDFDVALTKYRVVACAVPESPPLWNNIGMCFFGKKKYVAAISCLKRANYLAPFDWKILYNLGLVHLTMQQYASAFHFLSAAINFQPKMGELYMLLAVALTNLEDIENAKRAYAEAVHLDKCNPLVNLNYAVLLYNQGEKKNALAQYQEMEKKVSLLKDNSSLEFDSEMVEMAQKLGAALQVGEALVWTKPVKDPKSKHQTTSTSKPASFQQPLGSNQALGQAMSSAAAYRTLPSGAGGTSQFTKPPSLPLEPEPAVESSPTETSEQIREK

In the first assay the parent is B1. To be noted: with bbs2_human BBS2, Q9BXC9.
As for S886K, the “effect of a mutation on the interaction” value is given as “with no effect”. Regarding S886E, the “effect of a mutation on the interaction” value is on record as “with no effect”. Take S886A: the “effect of a mutation on the interaction” value is reported as “with no effect”. For E887K, the “effect of a mutation on the interaction” value was “with no effect”. Take E887A: the “effect of a mutation on the interaction” value is “with no effect”.

Variants of B2 are the subject of a further assay. As to conditions: with bbs4_human BBS4, Q96RK4.
Take T405E: the “effect of a mutation on the interaction” value is listed as “with no effect”. Regarding T405A, the “effect of a mutation on the interaction” value is listed as “with no effect”. Turning to T405K, the “effect of a mutation on the interaction” value is “with no effect”. In the case of D429K, the “effect of a mutation on the interaction” value was “with no effect”. On to D429A, for which the “effect of a mutation on the interaction” value is on record as “with no effect”. As for D429E, the “effect of a mutation on the interaction” value is listed as “with no effect”.

Consider V440E, for which the “effect of a mutation on the interaction” value was “with no effect”. Turning to V440A, the “effect of a mutation on the interaction” value is given as “with no effect”. Regarding V440K, the “effect of a mutation on the interaction” value is “disrupting interaction strength”. Take V432K: the “effect of a mutation on the interaction” value is given as “with no effect”.

Take V432A: the “effect of a mutation on the interaction” value is on record as “with no effect”. V432E: the “effect of a mutation on the interaction” value is “with no effect”. For V424A, the “effect of a mutation on the interaction” value is “with no effect”.

With V424E, the “effect of a mutation on the interaction” value was “with no effect”. V424K: the “effect of a mutation on the interaction” value was “with no effect”. With T434A, the “effect of a mutation on the interaction” value is given as “with no effect”. For T434K, the “effect of a mutation on the interaction” value is listed as “with no effect”.

Regarding T434E, the “effect of a mutation on the interaction” value is given as “with no effect”. Take V415A: the “effect of a mutation on the interaction” value is recorded as “with no effect”.

With V415E, the “effect of a mutation on the interaction” value is reported as “with no effect”. On to V415K, for which the “effect of a mutation on the interaction” value is “with no effect”.

R407K: the “effect of a mutation on the interaction” value is given as “with no effect”. With R407A, the “effect of a mutation on the interaction” value is “with no effect”. Regarding R407E, the “effect of a mutation on the interaction” value is “with no effect”. The same measure, in the same setting: next, S418E: “with no effect”; S418A: “with no effect”; S418K: “with no effect”. Consider D410K, for which the “effect of a mutation on the interaction” value is given as “with no effect”. As to D410A, the “effect of a mutation on the interaction” value is on record as “with no effect”. As for D410E, the “effect of a mutation on the interaction” value is “with no effect”. Regarding T441A, the “effect of a mutation on the interaction” value is “with no effect”. The same measure, in the same setting: for T441K the value was “with no effect”; for T441E, “with no effect”. In the case of D435E, the “effect of a mutation on the interaction” value is listed as “with no effect”. With D435A, the “effect of a mutation on the interaction” value is “with no effect”. As to D435K, the “effect of a mutation on the interaction” value is given as “with no effect”. For the variant V461E, the “effect of a mutation on the interaction” value is recorded as “with no effect”. As for V461A, the “effect of a mutation on the interaction” value is on record as “with no effect”. With V461K, the “effect of a mutation on the interaction” value is reported as “with no effect”. Turning to R449K, the “effect of a mutation on the interaction” value is recorded as “with no effect”. In the case of R449E, the “effect of a mutation on the interaction” value is “with no effect”.

As for R449A, the “effect of a mutation on the interaction” value is “with no effect”.

Consider V417E, for which the “effect of a mutation on the interaction” value was “with no effect”.

With V417A, the “effect of a mutation on the interaction” value was “with no effect”. Consider V417K, for which the “effect of a mutation on the interaction” value was “with no effect”.

Consider V444A, for which the “effect of a mutation on the interaction” value is reported as “with no effect”. Consider V444I, for which the “effect of a mutation on the interaction” value is recorded as “disrupting interaction strength”. V444E: the “effect of a mutation on the interaction” value was “with no effect”. As to V444K, the “effect of a mutation on the interaction” value is recorded as “with no effect”. As to N448K, the “effect of a mutation on the interaction” value is “with no effect”. Regarding N448A, the “effect of a mutation on the interaction” value was “with no effect”.

Regarding N448E, the “effect of a mutation on the interaction” value is reported as “with no effect”. The same measure, in the same setting: for L457A the value was “with no effect”; for L457E, “with no effect”; for L457K, “with no effect”. Consider V450K, for which the “effect of a mutation on the interaction” value was “with no effect”. Regarding V450M, the “effect of a mutation on the interaction” value was “disrupting interaction strength”. For the variant V450E, the “effect of a mutation on the interaction” value is given as “with no effect”. Regarding V450A, the “effect of a mutation on the interaction” value was “with no effect”. In the case of K443A, the “effect of a mutation on the interaction” value was “with no effect”. Still for that read-out and setting: next, K443E: “with no effect”; Q453A: “with no effect”; Q453K: “with no effect”.

As to Q453E, the “effect of a mutation on the interaction” value is “with no effect”. For the variant T428A, the “effect of a mutation on the interaction” value is “with no effect”.

For the variant T428K, the “effect of a mutation on the interaction” value was “with no effect”. Take T428E: the “effect of a mutation on the interaction” value is listed as “with no effect”. As for S425E, the “effect of a mutation on the interaction” value is reported as “with no effect”.

For S425A, the “effect of a mutation on the interaction” value is recorded as “with no effect”. For S425K, the “effect of a mutation on the interaction” value is “with no effect”. As for V437A, the “effect of a mutation on the interaction” value was “with no effect”. Consider V437K, for which the “effect of a mutation on the interaction” value is reported as “with no effect”.

Turning to V437E, the “effect of a mutation on the interaction” value is on record as “with no effect”. Q462T: the “effect of a mutation on the interaction” value was “disrupting interaction strength”. Take Q462A: the “effect of a mutation on the interaction” value is “with no effect”.

As to Q462K, the “effect of a mutation on the interaction” value is listed as “with no effect”. In the case of Q462E, the “effect of a mutation on the interaction” value is “with no effect”. As for L465E, the “effect of a mutation on the interaction” value is on record as “disrupting interaction strength”. Turning to L465A, the “effect of a mutation on the interaction” value is recorded as “with no effect”.

On to E408A, for which the “effect of a mutation on the interaction” value is on record as “with no effect”. Same read-out and setting: next, E408K: “with no effect”. Consider L452K, for which the “effect of a mutation on the interaction” value is “with no effect”.

As to L452S, the “effect of a mutation on the interaction” value is given as “disrupting interaction strength”.

Regarding L452A, the “effect of a mutation on the interaction” value was “with no effect”. On the same count and under the same terms, for L452E the value was “with no effect”. On the same count and under the same terms, next, V416K: “with no effect”; V416A: “with no effect”.
